Assay results reported in article PMC12603206, “The sensitive and selective electrochemical detection of carcinoembryonic antigen using a nanoMIPs-aptamer sandwich assay”.

Biological target: Carcinoembryonic antigen (CEA) (UniProt P06731 35-685)
Assay: electrochemical nanoMIPs-aptamer sandwich assay (SWASV of Pb2+); CEA captured on nanoMIPs electrode; aptamer on MOF-Pb probe; linear 1-1000 ng/mL, LOD 1.4 ng/mL (sensor values, not Kd); CEA in 0.01 M PBS pH 7.4, 1 h on nanoMIPs electrode, PBS/0.05% TWEEN20 wash; MOF-Pb-Apt probe (stored in 10 mM Tris-HCl pH 7.4) 30 min; temperature not stated
Settings: protein: commercial

Sequence of Carcinoembryonic antigen (CEA) (P06731 35-685): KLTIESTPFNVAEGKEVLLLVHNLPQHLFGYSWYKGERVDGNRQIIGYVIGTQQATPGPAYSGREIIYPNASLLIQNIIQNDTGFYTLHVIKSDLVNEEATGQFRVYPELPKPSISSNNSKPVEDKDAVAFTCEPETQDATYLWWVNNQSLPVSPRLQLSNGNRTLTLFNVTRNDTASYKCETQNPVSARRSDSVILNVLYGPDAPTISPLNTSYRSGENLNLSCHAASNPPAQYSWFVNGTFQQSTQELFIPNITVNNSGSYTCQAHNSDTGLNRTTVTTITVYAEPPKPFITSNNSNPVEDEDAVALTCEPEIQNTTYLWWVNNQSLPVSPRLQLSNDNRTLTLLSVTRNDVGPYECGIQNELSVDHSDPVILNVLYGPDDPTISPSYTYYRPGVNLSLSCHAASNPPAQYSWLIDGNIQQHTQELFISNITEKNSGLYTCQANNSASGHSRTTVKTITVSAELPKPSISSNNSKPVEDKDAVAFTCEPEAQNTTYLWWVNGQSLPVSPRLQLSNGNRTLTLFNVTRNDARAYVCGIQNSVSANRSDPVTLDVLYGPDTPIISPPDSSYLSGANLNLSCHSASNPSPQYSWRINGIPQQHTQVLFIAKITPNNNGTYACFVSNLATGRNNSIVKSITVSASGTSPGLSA

B1: CEA-specific aptamer (ssDNA)
DNA: ATACCAGCTTATTCAATT
modifications: 5'-phosphate-C6
B1: binds.
